We go through three molecules from PMC7900238, “A meet-up of two second messengers: the c-di-AMP receptor DarB controls (p)ppGpp synthesis in Bacillus subtilis” (Nature Communications, 2021).

The target of one data set is DarB (Bacillus subtilis, UniProt O31698). As to the kind of experiment: biochemical.
The target in a further data set is T1, Rel (Bacillus subtilis, UniProt O54408).
T1 construct: gene relA; full-length (734 residues), 10xHis-SUMO fusion from plasmid pVHP186 in E. coli Rosetta(DE3), SUMO tag cleaved, RNA-free
T1 sequence (O54408 whole entry, the tested form may be a part): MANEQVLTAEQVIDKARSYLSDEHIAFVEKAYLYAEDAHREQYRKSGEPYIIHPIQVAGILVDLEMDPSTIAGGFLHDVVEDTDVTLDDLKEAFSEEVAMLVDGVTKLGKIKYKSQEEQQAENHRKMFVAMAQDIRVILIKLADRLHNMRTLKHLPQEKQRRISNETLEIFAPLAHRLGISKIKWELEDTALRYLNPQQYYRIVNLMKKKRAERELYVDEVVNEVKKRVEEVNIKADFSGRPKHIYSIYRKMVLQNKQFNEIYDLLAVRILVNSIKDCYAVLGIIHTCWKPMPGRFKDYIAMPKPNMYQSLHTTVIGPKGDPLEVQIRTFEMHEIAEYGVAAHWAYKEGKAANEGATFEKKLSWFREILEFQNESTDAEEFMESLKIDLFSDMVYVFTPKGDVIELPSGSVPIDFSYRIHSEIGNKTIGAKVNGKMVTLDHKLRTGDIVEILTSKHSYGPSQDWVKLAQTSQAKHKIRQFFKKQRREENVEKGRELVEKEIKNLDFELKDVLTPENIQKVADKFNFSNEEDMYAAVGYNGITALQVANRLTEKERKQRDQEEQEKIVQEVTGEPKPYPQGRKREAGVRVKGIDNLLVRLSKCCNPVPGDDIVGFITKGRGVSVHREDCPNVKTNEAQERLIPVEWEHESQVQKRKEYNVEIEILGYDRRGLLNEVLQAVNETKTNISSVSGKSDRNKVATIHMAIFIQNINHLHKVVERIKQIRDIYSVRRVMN
The experiment in a line: hydrolase assay, GTP formation by LC-MS/MS. Type of data set: biochemical. The settings on record: 1 mM pppGpp, 1 mM MnCl2, 5 mM Mg(OAc)2, HEPES:Polymix pH 7.5, 37 °C; without DarB.

In data set [1] the target is Rel, full length, purified, SUMO tag removed (B. subtilis, UniProt O54408 1-734). The experiment in a line: cell-based or functional assay.
Sequence of Rel, full length, purified, SUMO tag removed (O54408 whole entry): as the sequence (O54408 whole entry, the tested form may be a part) above
Data set [2] deals with the molecule itself. The experiment in a line: SEC-MALS; Rel^NTD and DarB alone or pre-mixed 1:1 (~1 mg/ml each) in 1× ZAP buffer (50 mM Tris-HCl, 200 mM NaCl, pH 7.5), Superdex 200 10/300GL; fractions on SDS-PAGE. On the technique in general: SEC sorts molecules by how far they enter the pores of the column.
Data set [3] has as its target T2, Rel^NTD, purified, as used in SEC-MALS and ITC (B. subtilis 168, UniProt O54408 1-391).
T2 construct: Rel, Bacillus subtilis 168, aa 1-391 (HYD and SYN domains); the only expression plasmid named is pGP3350 (Strep-tagged); The SEC-MALS methods speak of 'purified tag-free proteins', but no removal of the Strep tag from Rel^NTD is described; Monomer by SEC-MALS; source: E. coli Rosetta(DE3), purified (StrepTactin)
As to the kind of experiment: ITC; 10 µM Rel^NTD in the cell, 100 µM DarB in the syringe, 50 mM Tris-HCl pH 8.3, 200 mM NaCl, 20 °C. The settings on record: both partners purified. Background: Isothermal titration calorimetry measures the heat released or taken up as one component is titrated into another.

T2 sequence (O54408 1-391): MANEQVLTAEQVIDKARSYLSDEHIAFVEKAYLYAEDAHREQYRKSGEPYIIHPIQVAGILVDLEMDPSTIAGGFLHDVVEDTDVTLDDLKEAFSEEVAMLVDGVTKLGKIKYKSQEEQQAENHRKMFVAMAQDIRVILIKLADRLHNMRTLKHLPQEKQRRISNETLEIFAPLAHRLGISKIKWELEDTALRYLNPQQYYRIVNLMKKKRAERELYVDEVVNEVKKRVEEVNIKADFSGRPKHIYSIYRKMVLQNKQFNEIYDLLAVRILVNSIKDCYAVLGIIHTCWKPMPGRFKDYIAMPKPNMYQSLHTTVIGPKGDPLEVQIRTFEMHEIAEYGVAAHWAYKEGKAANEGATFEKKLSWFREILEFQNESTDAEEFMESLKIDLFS
Sequence of DarB (O31698 whole entry): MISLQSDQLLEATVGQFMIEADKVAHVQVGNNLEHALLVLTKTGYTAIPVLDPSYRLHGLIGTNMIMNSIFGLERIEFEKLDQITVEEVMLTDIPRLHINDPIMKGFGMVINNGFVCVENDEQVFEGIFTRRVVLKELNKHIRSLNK

In the case of `Nc1ncnc2c1ncn2[C@@H]1O[C@@H]2COP(=O)(O)O[C@H]3[C@@H](O)[C@H](n4cnc5c(N)ncnc54)O[C@@H]3COP(=O)(O)O[C@H]2[C@H]1O` [c-di-AMP], at DarB, the Kd – broadly, the concentration at which binding is half-saturated – is roughly 45 nM.
Take `Nc1nc2c(ncn2[C@@H]2O[C@H](COP(=O)(O)OP(=O)(O)OP(=O)(O)O)[C@@H](OP(=O)(O)OP(=O)(O)O)[C@H]2O)c(=O)[nH]1` [pppGpp]: the “hydrolase assay, GTP formation by LC-MS/MS” value at Rel is on record as “we determined the formation of GTP resulting from the hydrolysis of pppGpp”.

B1: DarB, purified, SUMO tag removed (natural protein, B. subtilis 168)
chain: ISLQSDQLLEATVGQFMIEADKVAHVQVGNNLEHALLVLTKTGYTAIPVLDPSYRLHGLIGTNMIMNSIFGLERIEFEKLDQITVEEVMLTDIPRLHINDPIMKGFGMVINNGFVCVENDEQVFEGIFTRRVVLKELNKHIRSLNK
notes: darB amplified from chromosomal DNA and cloned into pET-SUMO (pGP2972); Dimer by SEC-MALS; Apo form as made in E. coli; in some experiments preincubated or saturated with c-di-AMP (written as a condition of the assay); also called apo-DarB; c-di-AMP receptor DarB; source: E. coli Rosetta(DE3), purified (Ni-NTA; SUMO tag removed with SUMO protease)
Turning to B1, in data set [1], the “pppGpp hydrolase activity of purified Rel (0.5 µM) with DarB (5 µM), against Rel alone (8.7 pmol of GTP per pmol of Rel per minute)” value worked out at 6 fold and the “pppGpp synthetase activity of purified Rel (0.5 µM) with DarB (5 µM), against Rel alone (1.1 pmol pppGpp per pmol of Rel per minute)” value came to 3 fold. In data set [2], the stoichiometry N (in general, a count of units in the complex or per binding partner) stood at 2. Further, in data set [3], the affinity, expressed as Kd, was 650 nM and the “stoichiometry N” value turned out to be 1.
